# Source: patent US20080263689A1 (GARVAN INSTITUTE OF MEDICAL RESEARCH, published 2008)
# B1: protein kinase C epsilon (PKCε), murine (enzyme)
# chain: MVVFNGLLKIKICEAVSLKPTAWSLRHAVGPRPQTFLLDPYIALNVDDSRIGQTATKQKTNSPAWHDEFVTDVCNGRKIELAVFHDAPIGYDDFVANCTIQFEELLQNGSRHFEDWIDLEPEGKVYVIIDLSGSSGEAPKDNEERVFRERMRPRKRQGAVRRRVHQVNGHKFMATYLRQPTYCSHCRDFIWGVIGKQGYQCQVCTCVVHKRCHELIITKCAGLKKQETPDEVGSQRFSVNMPHKFGIHNYKVPTFCDHCGSLLWGLLRQGLQCKVCKMNVHRRCETNVAPNCGVDARGIAKVLADLGVTPDKITNSGQRRKKLAAGAESPQPASGNSPSEDDRSKSAPTSPCDQELKELENNIRKALSFDNRGEEHRASSATDGQLASPGENGEVRPGQAKRLGLDEFNFIKVLGKGSFGKVMLAELKGKDEVYAVKVLKKDVILQDDDVDCTMTEKRILALARKHPYLTQLYCCFQTKDRLFFVMEYVNGGDLMFQIQRSRKFDEPRSRFYAAEVTSALMFLHQHGVIYRDLKLDNILLDAEGHCKLADFGMCKEGIMNGVTTTTFCGTPDYIAPEILQELEYGPSVDWWALGVLMYEMMAGQPPFEADNEDDLFESILHDDVLYPVWLSKEAVSILKAFMTKNPHKRLGCVAAQNGEDAIKQHPFFKEIDWVLLEQKKIKPPFKPRIKTKRDVNNFDQDFTREEPILTLVDEAIIKQINQEEFKGFSYFGEDLMP
# notes: Endogenous PKCε in hepatocytes of wild type mice
# Target: T1, insulin receptor (IR) of mouse primary hepatocytes (mouse, UniProt P15208 28-748; P15208 753-1372)
# T1 construct: whole, on cells; Endogenous receptor on intact primary hepatocytes from wild type or PKCε-/- mice; in cell lysates for the co-precipitation
# Test: co-precipitation from hepatocytes of wild type mice; data not shown
# T1 sequence (P15208 28-748 limits assumed, chain 1 of 2): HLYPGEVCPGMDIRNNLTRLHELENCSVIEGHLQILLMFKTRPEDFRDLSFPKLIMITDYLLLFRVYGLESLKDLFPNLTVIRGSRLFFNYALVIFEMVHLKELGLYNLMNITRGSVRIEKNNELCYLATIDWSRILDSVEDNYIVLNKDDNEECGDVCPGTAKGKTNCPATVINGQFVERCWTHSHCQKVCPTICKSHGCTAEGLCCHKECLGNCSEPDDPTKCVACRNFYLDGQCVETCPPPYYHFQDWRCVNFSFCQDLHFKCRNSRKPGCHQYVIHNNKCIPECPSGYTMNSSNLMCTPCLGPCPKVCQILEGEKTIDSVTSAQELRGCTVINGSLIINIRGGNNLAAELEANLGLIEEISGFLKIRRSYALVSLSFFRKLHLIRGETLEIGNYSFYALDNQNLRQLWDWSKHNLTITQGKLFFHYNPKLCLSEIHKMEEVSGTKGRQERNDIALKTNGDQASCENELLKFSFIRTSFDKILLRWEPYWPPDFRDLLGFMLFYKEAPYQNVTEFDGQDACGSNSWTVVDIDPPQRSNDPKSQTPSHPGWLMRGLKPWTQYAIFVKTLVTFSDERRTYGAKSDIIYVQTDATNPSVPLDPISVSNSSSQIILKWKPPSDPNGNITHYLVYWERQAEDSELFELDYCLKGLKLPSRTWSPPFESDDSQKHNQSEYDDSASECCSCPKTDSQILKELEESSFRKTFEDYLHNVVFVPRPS
# T1 sequence (P15208 753-1372 limits assumed, chain 2 of 2): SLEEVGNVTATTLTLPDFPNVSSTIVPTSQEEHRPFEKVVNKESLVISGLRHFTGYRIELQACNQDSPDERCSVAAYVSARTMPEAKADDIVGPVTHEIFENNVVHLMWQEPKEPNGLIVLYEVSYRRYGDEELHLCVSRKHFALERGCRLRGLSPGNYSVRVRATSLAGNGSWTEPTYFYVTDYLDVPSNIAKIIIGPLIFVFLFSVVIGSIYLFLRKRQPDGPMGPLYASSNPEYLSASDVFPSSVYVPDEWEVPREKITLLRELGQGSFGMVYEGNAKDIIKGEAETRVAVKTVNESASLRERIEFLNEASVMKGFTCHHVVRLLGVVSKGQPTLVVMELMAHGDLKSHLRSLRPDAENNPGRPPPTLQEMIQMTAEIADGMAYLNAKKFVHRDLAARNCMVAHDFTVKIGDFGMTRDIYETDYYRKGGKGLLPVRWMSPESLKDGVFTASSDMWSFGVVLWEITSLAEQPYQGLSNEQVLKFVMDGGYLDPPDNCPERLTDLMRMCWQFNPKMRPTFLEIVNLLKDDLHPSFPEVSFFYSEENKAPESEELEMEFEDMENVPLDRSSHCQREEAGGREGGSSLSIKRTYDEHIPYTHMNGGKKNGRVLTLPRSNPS
binder,measurement,value
B1,binding result,no binding
